Patent US9371374

T1: HCV Core1-169 (HCV-1), P26664
T1 chain: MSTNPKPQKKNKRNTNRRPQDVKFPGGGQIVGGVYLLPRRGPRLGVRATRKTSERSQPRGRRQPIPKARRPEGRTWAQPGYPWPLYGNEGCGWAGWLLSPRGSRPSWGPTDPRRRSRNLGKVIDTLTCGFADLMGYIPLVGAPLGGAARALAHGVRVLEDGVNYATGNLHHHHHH


How the values were obtained:
[1] = target: biotinylated HCV core peptide 134-154 (Peptide 1) (HCV-1); assay: EIA, captured mAb
[2] = target: biotinylated HCV core peptide 151-171 (Peptide 3) (HCV-1); assay: EIA, captured mAb
[3] = target: biotinylated HCV core peptide 141-161 (Peptide 2) (HCV-1); assay: EIA, captured mAb
[4] = target: T1, HCV Core1-169 (HCV-1), P26664; assay: SPR sandwich, C11-3 capture; settings: remark: other sources report otherwise
[5] = target: T1, HCV Core1-169 (HCV-1), P26664; assay: SPR sandwich, C11-14 capture; settings: remark: other sources report otherwise
[6] = target: T1, HCV Core1-169 (HCV-1), P26664; assay: SPR sandwich, C11-7 capture; settings: remark: other sources report otherwise
[7] = target: T1, HCV Core1-169 (HCV-1), P26664; assay: SPR sandwich, C11-9 capture; settings: remark: other sources report otherwise
HCV Core1-169 (HCV-1) [8] = target: HCV Core1-169 (HCV-1) (UniProt P26664); assay: SPR sandwich, C11-9 capture
HCV Core1-169 (HCV-1) [9] = target: HCV Core1-169 (HCV-1) (UniProt P26664); assay: SPR sandwich, C11-3 capture
HCV Core1-169 (HCV-1) [10] = target: HCV Core1-169 (HCV-1) (UniProt P26664); assay: SPR sandwich, C11-7 capture
HCV Core1-169 (HCV-1) [11] = target: HCV Core1-169 (HCV-1) (UniProt P26664); assay: SPR sandwich, C11-14 capture

Binder	Reactivity (OD492) [1]	Reactivity (OD492) [2]	Reactivity (OD492) [3]	also measured
HCV 208B-672 (antibody, V domains shown) VH: EVKLVESGGSLVQPGGSLKLSCAASGFNFNTYAMSWVRQTPEKRLEWVAYISNGGGNTYYVDTVKGRFTISRDNAKNTLYLRMSSLKSEDTAMYYCARHGLYWGYSMDYWGQGTSVTVSS VL: DIQMTQSPSSLSASLGERVSLTCRASQDIGGSINWLQQEPDGTIKRLIYATSSLDSGVPKRFSGSRSGSDYSLTISSLESEDFVDYYCLQYASSPPTFGGGTKLEIKR	0.08 OD	0.1 OD	2.79 OD	
HCV 208B-911 (antibody, V domains shown) VH: QVHLQQPGAELVRPGVSVKLSCKASGYTFTTYSINWMKQRPGQGLEWIGNIYPSTSHTNYNQKFRDKATMTVDKSSSTAYMQLSSPTSEDSAVYYCTINAYSMDYWGQGTSVTVSS VL: QIVLTQSPEIMSASPGEKVTITCSASSSVSFMYWFQQKPGTSPKLWIYITSNLASGVPTRFSGSGSGTSYSLTISRMEAEDAATYYCQQRSSFPYTFGGGTKLEMKR	0.09 OD	0.71 OD	0.09 OD	
HCV 208B-793 (antibody, V domains shown) VH: EVKLVESGGGLVQPGGSLKLSCAASGFTFSSYAMSWVRQTPERRLEWVTYISNGGGSTYYSDTVKGRFTFSRDNAKNTLYLQMSSLKSEDTAMYYCARHGLGRTGFASWGQGTLVTVSA VL: DIVMTQSHKFMSTSVGDRVSITCKASQDVGTAVAWYQQKPGQSPKLLIYWASTRHTGVPDRFTGSGSGTDFTLTISNVQSEDLADYFCQQYSNYLTFGAGTKLEVKR	0.09 OD	0.09 OD	0.72 OD	
HCV 208B-862 (antibody) chain 1: DVQLQESGPGLVKPSQSLSLTCTVTGYSITSDYAWNWIRQFPGNKLEWMGYISYSGTTVYSPSLKSRISITRDTSKNQFFLQLNSVTIEDSATYYCGGNYWGQGTLVTVSA chain 2: DVVLTQTPLSLPLSLGDQASISCRSSQTLLHSDGDTYLHWYLQKPGQSPKLLIYKLSNRFSGVPDRFSGSGSGTDFTLKISRVEAEDLGVYFCSQSTHVPYTFGGGTKLEIKR	0.21 OD	0.1 OD	3.28 OD	
HCV 208B-517 (antibody, V domains shown) VH: QVQLKQSGPGLVQPSQSLSITCTVSGFSLITHGVHWVRQSPGKGLEWLGVIWSGGSTDYNAAFISRLSISKDTSKSQVFLKMSSLQADDTAIYYCARNGGATAFDYWGQGTTLTVSS VL: DIVMTQSPATLSVTPGDRVSLSCRASQSISDYLHWYQQKSHESPRLLIKYASQSISGIPSRFRGSGSGSHFTLSINSVEPEDVGVYYCQNGHSFPWTFGGGTKLEIKR	0.1 OD	0.7 OD	0.41 OD	
HCV 208B-822 (antibody, V domains shown) VH: QVQLKQSGPGLVQPSQSLSITCTVSGFSLITYGVHWVRQSPGKGLEWLGVIWGGGSTGYNAAFVSRLNITKDNSKSQVFFKMNSLQPDDTAIYYCARNGGATVFDYWGQGTTLTVSS VL: DIVMTQSPATLSVTPGDRVSLSCRASQTISDYLHWYQQKSHESPRLLIKYASQSISGIPSRFSGSGSGSHFTLSINSVEPEDVGVYYCQNGHSFPWTFGGGTKLEIKR	0.08 OD	0.07 OD	1.35 OD	
HCV 208B-515 (antibody, V domains shown) VH: QVQLQQPGAELVKPGASLKLSCRASGYTFTSYWIHWVKQRPGQGLEWIGEIDPSDSYTNYNQKFKGKATLTVDKSSRAAYMQLSSLTSEDSAVYYCARHYYGVFDSWGQGTKLTVSS VL: QIVFTQYPAIMSASLGERVTMTCTASSSVTSSYLHWFQQKPGSSPKLWIYSTSNPGSGVPARFSGRGSGTSYSLSISSMEAEDAATYYCLQFHRSPWTFGGGTKLEIRR	0.51 OD	0.06 OD	0.13 OD	
HCV 208A-983 (antibody, V domains shown) VH: QGQMQQSGAELVKPGASVKLSCKTSGFTFSSSYFSWLKQKPGQSLEWIAWIYAGTGNTIYNQKFTDKAQLTVDTASSTAFMQLSSLTIEDSAIYYCAISGTGFTYWGQGTLVTVSA VL: DVLMTQTPLSLPVNLGDQASISCRSSQSLLHSNGNTYLEWFLQKPGQSPKLLIYNVSNRFSGVPDRFSGSGSGTDFTLKISRVEAEDLGVYYCFQGSHVPFTFGSGTKLAIKR	3.03 OD	0.05 OD	0.4 OD	expected % binding [4]: < 1%; expected % binding [5]: < 1%; expected % binding [6]: < 1%; expected % binding [7]: < 1%
HCV 208B-612 (antibody, V domains shown) VH: EVQLQQSGPELVKPGASVKMSCKASGYRFTSYVMHWVRQKPGQGLEWIGYIDPHNDDTKYSEKFRGKATLTSDKSSTTAYMELSSLTSEDSAVYYCVRYSYDRDYSPMDYWGQGTSVTVSS VL: QIVLTQSPTLMSASPGEKVTMTCSASSTVTYIYWYQQKPGSSPRLWMYDTFNLVSGVPARFSGSRSGTSYFLTISSMEGEDAATYYCQQYSDSPYTFGGGTKLEIKR	3.05 OD	0.15 OD	3.04 OD	
HCV 208B-408 (antibody, V domains shown) VH: EVKLVESGGGLVQPGGSLRLSCASSGFTFTDYYMSWVRQPPGKALEWLGFIRNKAYGYTTEFSASVNGRFTISRDDSQSVPYLQMNTLRAEDSATYYCARVLYYDYGGFAYWGQGTLVTVST VL: DIQMTQSPASLSASVGETVTITCRASGNIHTYLAWYQQKQGKSPQLLVYNANTLADGVPSRFSGSGSGTQFSLKINSLQPDDFGSYYCQHFWSAPWTFGGGTQLEIKR	0.81 OD	0.16 OD	0.2 OD	
HCV 208B-556 (antibody, V domains shown) VH: QLQQSGPVLVKPGASVMISCKTSGYTFTENAMHWVKQSHGKSLEWIGGVNPNNGDTIFNQKFKGKATLTVDKSSSTAFMEFRSLTSEESTVYYCVRRELDFFDYWGQGTSVTVSS VL: DIVLTQSPASLAVSLGQRATISCRASQSVSTSRYSYMHWYQQKPGQPPKLLIKYASNLESGVPARFSGSGSGTDFTLNIHPVAEEDTATYYCQHSWEFPFTFGSGTKLEIKR	0.13 OD	0.18 OD	3.07 OD	
HCV 208B-560 (antibody, V domains shown) VH: EVQLQQSGPELEKPGASVKISCKTSGYTFTEYAMHWVKQSHGMSLEWIGGINPSNGNAIYNQIFKDKATLTVDRSSSTAYMGLRSLTFGDSGVYFCVRRQLDFFDYWGQGASLTVSS VL: DIVVTQSPASLAVSLGQRATISCRASQSVSTSRYSYLHWYQQKPGQPPKLLIKYASNLESGVPARFSGSGSGTDFTLNIHPVGEEDTATYYCQHSWEFPFTFGSGTKLEIKR	0.11 OD	0.14 OD	3.9 OD	
HCV 208B-826 (antibody, V domains shown) VH: DVQLVESGGGLVQAGGSRKLSCAASGFPFSSFGMHWVRQAPEKGLEWVASISSRTSKIYYADNLKGRFTISRDNPKNTLFLQMTSLGSEDTAMYYCVRSVFGNSYWFFDVWGAGTTVTVSS VL: DIVLTQSPATLSVTPGDRVSLSCRASQRIYNYLHWYQQKSHESPRLLTKYASQSISGIPSRFSGSGSGTDFILTINSVETEDFGMYFCQQSNSWPLTFGAGTKLELRR	0.53 OD	0.08 OD	1.35 OD	
HCV 208A-874 (antibody, V domains shown) VH: QVQLQQPGAELVKPGASVKLSCKASGYTLSSYWMHWVKQRPGQGLEWIGEIHPSDSYTSYNQKFKDKATLTVDKSSSTAYMQLSSLTSEDSAVYYCARGGYYRYDEFAYWGQGTLVTVSA VL: DIVMTQSHKFMSTSIGDRVSITCKASQNVSPAVAWYQQKPGQSPKLLIYSASSRYTGVPDRFTGSGSGTAFTFTISSVQAEDLAVYFCQQHFSTPWTFGGGTMLEIKR	0.05 OD	0.06 OD	0.73 OD	expected % binding (HCV Core1-169 (HCV-1) [8]): < 1%; expected % binding (HCV Core1-169 (HCV-1) [9]): < 1%; expected % binding (HCV Core1-169 (HCV-1) [10]): < 1%; expected % binding (HCV Core1-169 (HCV-1) [11]): < 1%
HCV 208B-547 (antibody, V domains shown) VH: QVQLQQSGAELAKPGASVKMSCKASGYTFTSNKMHWAKQRPGQGLEWIGYIDPSSGYTEYNQKIKDKATLTADKSSSTAYMQLSSLTSEDSAVYYCTNFAYWGQGTLVTVSA VL: EVVLTQSPAITAASLGQKVTITCRASSSVSYMHWYRQKSGTSPQPWIYEISTLASGVPTRFRASGSGTSYSLTISSMEAEDAAIYYCQQWNYPLTFGAGTKLELKR	0.12 OD	2.9 OD	0.08 OD	
HCV 208B-589 (antibody, V domains shown) VH: QVQLQQSGAGLAKPGASVKMSCKASGYTFTANKMHWAKQRPGQGLEWIGYIDPSSGYTEYNHKIQDKATLTADTSSSTAYMQLSSLTFEDSAVYYCTNFAYWGQGTLVTVSA VL: DIVMTQTPLTLSVTIGQPASISCKSSQSLLFTNGKTYLNWFLQRPGQSPKRLIYLLSKLDSGVPDRFSGSGSGTDFTLKISRVEAEDLGVYYCLQSTYFPLTFGAGTKLELKR	0.27 OD	2.85 OD	0.1 OD	
